Data reported in the supplement of paper PMC9732359.
± gives the uncertainty stated by the source.

Assay: protein stability index of a GFP-peptide fusion (yeast GPS) (PSI 1-4); higher = more stable; sorted into four equal gates, so the index is relative within each strain
Procedure, shortened: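 The protein stability index combines read frequencies across sorting gates, each weighted by its gate number and then summed. To obtain those frequencies, a pooled yeast library of GFP fusions to tiled 17-residue yeast protein peptides, on a plasmid also expressing Cherry, was grown to mid-log phase in leucine-free medium. The cells were sorted into four equal gates by GFP/Cherry ratio before plasmid amplification by PCR and Illumina sequencing.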

Sequence | protein stability index (doa10∆) | protein stability index (pdr5∆) | protein stability index (san1∆) | protein stability index (ubr1∆)
KKRSHHGKASRQQYYSG [SNF6] | 3.05 ± 0.088 | 3.11 ± 0.062 | 2.92 ± 0.065 | 2.98 ± 0.079
PDLNIDRNNSTNQIFQS [SIN4] | 3.1 ± 0.29 | – | 2.7 ± 0.21 | 2.19 ± 0.15
LKLSMADYNGALLRVTK [POP4] | 2.82 ± 0.076 | 2.52 ± 0.05 | 2.61 ± 0.07 | 2.52 ± 0.053
PYAIVKGKARLGTLVNQ [RPL8A] | 2.54 ± 0.1 | 2.81 ± 0.093 | 2.74 ± 0.16 | 2.73 ± 0.073
LTFQPQQQTNALNGIDI [GRR1] | 2.84 ± 0.067 | 3.07 ± 0.075 | 3.02 ± 0.082 | 3.1 ± 0.056
ESGKVFIGRLPIMLRSK [RPB2] | 2.83 ± 0.1 | 2.67 ± 0.062 | 2.94 ± 0.08 | 2.79 ± 0.058
SQSLTSILVIVQKILPL [SWI1] | 1.38 ± 0.041 | 1.39 ± 0.035 | 1.48 ± 0.066 | 1.61 ± 0.033
VKVHMDSETSDPNEVEI [DIS3] | 3.29 ± 0.089 | 3.5 ± 0.086 | 3.5 ± 0.077 | 3.52 ± 0.088
IALRNGQSSVKHEDFVE [RPT5] | 2.89 ± 0.19 | – | 3.23 ± 0.14 | 3.41 ± 0.16
FHGTSTKANDKNESATI [FAS2] | 3.06 ± 0.12 | 2.8 ± 0.094 | 2.95 ± 0.075 | 2.91 ± 0.1
EGDGAKAAISFGAKPEE [YJL041W/NSP1] | 3.21 ± 0.1 | 3 ± 0.087 | 3.43 ± 0.082 | 3.43 ± 0.053
GQPVNDFIDTATRHVLM [RPS3] | 2.96 ± 0.081 | 3.02 ± 0.06 | 3.1 ± 0.051 | 2.96 ± 0.07
GARPGRVARRNAARKAE [RPS9A] | 3.3 ± 0.13 | 3.45 ± 0.17 | – | 3 ± 0.098
NYKQLTLVGGGAKITPE [RRP43] | 1.86 ± 0.11 | 1.94 ± 0.11 | 2.22 ± 0.18 | 2.01 ± 0.15
STVIEEFTLFMDIAERI [YGL172W/NUP49] | 2.37 ± 0.053 | 2.71 ± 0.053 | 2.47 ± 0.049 | 2.75 ± 0.038
VHVIHFQHADNSSMRYG [AAR2] | 2.73 ± 0.081 | 2.7 ± 0.073 | 2.32 ± 0.11 | 2.53 ± 0.055
RYNRAVPDSKIRIYDLG [RPL10] | 2.53 ± 0.092 | 3.04 ± 0.15 | 1.89 ± 0.19 | 2.55 ± 0.1
KTPEEVEVYAKIFWERL [ISW2] | 1.74 ± 0.081 | 2.91 ± 0.17 | 3.03 ± 0.17 | 3.29 ± 0.085
DGMYSESKLSLETLFNR [FAS2] | 3.39 ± 0.075 | 3.25 ± 0.09 | 3.32 ± 0.046 | 3.33 ± 0.048
IASDGSECIVSIKSKVV [RRP42] | 3.1 ± 0.081 | 3.12 ± 0.075 | 2.7 ± 0.2 | 3.12 ± 0.19
IGDKFASRHGQKGTIGI [RPB2] | 1.34 ± 0.07 | 1.96 ± 0.047 | 1.57 ± 0.16 | 1.1 ± 0.041
IKVDGAVGNLGNAIEVT [RPL22B] | 1.74 ± 0.12 | 2.4 ± 0.076 | 1.8 ± 0.14 | 1.58 ± 0.047
AVSIETALEHKVVNGNS [FAS2] | 2.14 ± 0.18 | 1.37 ± 0.1 | 1.34 ± 0.12 | 1.4 ± 0.051
NGGVGVDVELITSINVE [FAS2] | 2.93 ± 0.051 | 3.18 ± 0.056 | 3.11 ± 0.05 | 3.13 ± 0.05
NSESDSKSDSDSEERDP [ITC1] | 3.14 ± 0.14 | 2.99 ± 0.2 | 3.01 ± 0.12 | 3.22 ± 0.12
DVTPISMFGSDQKTGRA [RPN4] | 2.93 ± 0.069 | 3.11 ± 0.094 | 3.07 ± 0.066 | 2.95 ± 0.069
DDMDIDEVNDRSDISDS [PCI8] | 3.22 ± 0.12 | 3.1 ± 0.1 | 3.26 ± 0.048 | 3.02 ± 0.085
